Source: publication PMC4131848

Molecular target: putative N-acetyltransferase from S. aureus subsp. aureus Mu50 (SaGNAT) (Staphylococcus aureus subsp. aureus Mu50)
Assay: SEC; Superdex 200, 50 mM Tris pH 8.0, 125 mM NaCl; elution compared with theoretical elution volumes for monomer, dimer and trimer

putative N-acetyltransferase from S. aureus subsp. aureus Mu50 (SaGNAT) (enzyme)
stoichiometry N: 2
